In PMC4530586, “STIL binding to Polo-box 3 of PLK4 regulates centriole duplication” (eLife, 2015):

Biological target: T1, human PLK4-PB3 (884–970), recombinant (human, UniProt O00444 884-970)
T1 construct: PLK4, human, residues 884–970 (Polo-box 3); isotope-labelled (2H, 15N, 13C) samples were used for NMR; also called Polo-box 3; source: E. coli BL21 DE3, purified (nickel resin, TEV cleavage, Superdex75 SEC); not shown: thioredoxin, N-terminal, cleaved; His6, N-terminal, cleaved
T1 sequence (looked up): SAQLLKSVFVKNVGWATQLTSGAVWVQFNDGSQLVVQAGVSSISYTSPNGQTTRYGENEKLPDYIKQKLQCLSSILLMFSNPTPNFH
Assay: ITC; synthetic STIL-CC peptide (414 µM) titrated into recombinant PB3 (35.5 µM); 50 mM Hepes pH 8.0, 150 mM NaCl, 1 mM TCEP; 25°C; 30 injections of 10 µl; one-site binding model
Conditions: both partners purified

B1: synthetic STIL-CC peptide (peptide, UniProt Q15468 720-751, looked up)
peptide: PDAYRFLTEQDRQLRLLQAQIQRLLEAQSLMP
notes: also called synthetic peptide corresponding to STIL-CC; source: synthetic peptide
For B1, the Kd was 280 ± 60 nM and the “stoichiometry N” value was 1.
